Reference: US20190275087A1, “EXPANSION AND DIFFERENTIATION OF STEM CELLS” (Allergan Pharmaceuticals International Limited, priority 2018, published 2019)

Key:
[1] = molecular target: αv integrins (all αv subunit integrins) on human MSCs (human, UniProt P06756 31-1048); assay: cell-based or functional assay
MSCs [2] = assay: MSC attachment to substrate-bound tropoelastin (EDTA inhibition, cation add-back); type: cell-based, Human; conditions: cation-free environment
Experimental: MSCs were seeded at a density of 1.5×10^5 cells/cm^2 on tropoelastin-coated wells in serum-free α-MEM containing 0-9 mM ethylenediaminetetraacetic acid (EDTA) (Sigma-Aldrich®). The cells were incubated for 1 hour at 37° C., then washed with PBS to remove unbound cells. Bound cells were fixed, stained and measured for absorbance at 570 nm as described for the proliferation assays. The percentage of cell attachment was determined relative to a set of standards with known cell numbers.
MSCs were washed with cation-free PBS, centrifuged at 270 g for 5 min, and resuspended in cation-free PBS. The cells were seeded at a density of 1.5×10^5 cells/cm^2 on tropoelastin-coated wells in the presence of 0-0.5 mM cation (Mg^2+, Ca^2+ or Mn^2+) and incubated for 45 min at 37° C. Bound cells were fixed and stained, and cell attachment was quantified as previously described.

MSCs [3] = assay: Flow cytometry of MSC surface marker expression; type: cell-based, Human
Experimental: MSCs cultured for 5 or 7 days in various media formulations and on bare or protein-coated tissue culture wells were trypsinised and pelleted. The cell pellets were washed with 0.22 μm filtered FACS buffer (5% v/v FBS in PBS) and re-centrifuged at 270 g for 5 min. The cells were resuspended in FACS buffer to a concentration of 100,000 cells in 100 μL total volume, and probed for MSC marker expression using the Human Mesenchymal Stem Cell Verification Flow Kit (R&D Systems®). Isotype and unstained control samples were prepared using MSCs cultured in standard growth media on tissue culture plastic. Cells were analyzed using a BD™ Biosciences LSR II Flow Cytometer System. Singlet cells were determined by their forward scatter-to-side scatter and scatter height-to-width ratios, while viable cells were identified by exclusion of 1:20 propidium iodide. Only singlet, viable cells were analyzed for marker expression.

MSCs [4] = assay: Cell migration via haptotaxis; type: cell-based, Human; conditions: 5 days post-seeding
Experimental: Polydimethylsiloxane (PDMS) was casted into 3D printed molds to create a circular shape with three rectangular cutouts, in which the middle rectangle was equidistant from the flanking rectangles. The PDMS stencil was placed inside a well plate and pressed tightly against the well surface to create watertight seal. The top and bottom rectangular chambers were filled with tropoelastin solution (20 μg/mL) or PBS, respectively, and air dried overnight. MSCs (1.2×10^6 cells/cm^2) were seeded into the middle chamber and allowed to attach for at least 2 hrs. The PDMS stencil was removed, and the culture well was covered with normal media. For up to 5 days, cells were stained daily with NucBlue™ Live ReadyProbes™ Reagent (Life Technologies) for 15 min, washed once with PBS, covered with normal media, and imaged under fluorescence at 360/460 nm using a Nikon Ti-E Live Cell Microscope. Cell migration into regions defined by tropoelastin or PBS coating was quantified via relative fluorescent areas using ImageJ software.

MSCs [5] = assay: Cell migration via chemotaxis (Boyden chamber); type: cell-based, Human; conditions: tropoelastin in solution, lower chamber
Experimental: Chemotaxis was measured using a fluorimetric 96-well Boyden chamber assay system (QCM Chemotaxis Cell Migration Assay, Millipore) according to the supplier's instructions. Normal, tropoelastin-supplemented, or growth factor-supplemented media was added to the lower chamber of the well plate, while MSCs were seeded at 14,300 cells/cm^2 in normal media into the upper chamber. Where indicated, integrin-blocking antibodies were added at optimized concentrations to the upper chamber with the cells. Cells that migrate through the permeable membrane into the lower chamber were detached and quantified. Normalized cell migration was calculated by subtracting the extent of undirected cell migration (where no chemoattractant was added to the lower chamber) from each experimental result.

MSCs [6] = assay: MSC osteogenic differentiation (mineralized calcium, Alizarin Red S); type: cell-based, Human
Experimental: (§1) MSCs were grown in various media formulations and on bare or protein-coated tissue culture wells for 7 days. The expanded cells were harvested, re-seeded on TCP, and differentiated into the adipogenic, osteogenic and chondrogenic lineages using the hMSC Adipogenic BulletKit®, hMSC Osteogenic BulletKit®, and hMSC Chondrogenic BulletKit® (Lonza), respectively, following the manufacturer's instructions.
(§2) To confirm osteogenesis, cells that had been induced for 14 days were fixed and stained for mineralized calcium deposits with Alizarin Red S, as previously described. Cells from the adipogenic and osteogenic experiments were imaged with a Zeiss Axio Vert.A1 microscope using an AxioCam 105 colour camera.

MSCs [7] = assay: MSC adipogenic differentiation (intracellular lipid, Oil Red O); type: cell-based, Human
Experimental: as §1
(§3) To confirm adipogenesis, cells that had been induced for 25 days were washed with PBS, fixed with 10% (v/v) formalin for 30 min, then washed with water. Cells were incubated with 60% (v/v) isopropanol for 5 min and stained for intracellular lipid droplets with 1.8 mg/mL Oil Red O in isopropanol for 20 min. Excess stain was removed with 5 washes of water.

MSCs [8] = assay: MSC chondrogenic differentiation (glycosaminoglycans, Alcian Blue); type: cell-based, Human; conditions: for decreased MSC chondrogenesis: tropoelastin addition during differentiation
Experimental: as §1
To confirm chondrogenesis, cell pellets that had been induced for 14 days were washed with PBS, embedded in 1.5% (w/v) agar containing 0.85% (w/v) NaCl, and fixed with 10% (v/v) formalin overnight. The samples were dehydrated in 70% (v/v) ethanol for 1 day, then paraffin-embedded, sectioned, mounted onto slides, stained with Alcian Blue (pH 2.5) for 1 hour and counterstained with Nuclear Fast Red. Samples were imaged with an Olympus VS120 Slide Scanner.

MSCs [9] = assay: Tri-lineage differentiation of MSCs expanded with tropoelastin; type: cell-based, Human; conditions: substrate-bound or soluble, replacing growth factors, normal or reduced serum media
Experimental: as §1, §3, §2
To confirm chondrogenesis, cell pellets that had been induced for 14 days were washed with PBS, embedded in 1.5% (w/v) agar containing 0.85% (w/v) NaCl, and fixed with 10% (v/v) formalin overnight. […]

[10] = tropoelastin-coated surfaces, all media formulations, 5 days post-seeding
[11] = TE days 2-5, 3-6 or 4-7 of 7-day proliferation period
[12] = tropoelastin addition during differentiation
[13] = tropoelastin during both expansion and differentiation stages
[14] = tropoelastin addition during MSC expansion

Chain of αv integrins (all αv subunit integrins) on human MSCs (P06756 31-1048, form in doubt): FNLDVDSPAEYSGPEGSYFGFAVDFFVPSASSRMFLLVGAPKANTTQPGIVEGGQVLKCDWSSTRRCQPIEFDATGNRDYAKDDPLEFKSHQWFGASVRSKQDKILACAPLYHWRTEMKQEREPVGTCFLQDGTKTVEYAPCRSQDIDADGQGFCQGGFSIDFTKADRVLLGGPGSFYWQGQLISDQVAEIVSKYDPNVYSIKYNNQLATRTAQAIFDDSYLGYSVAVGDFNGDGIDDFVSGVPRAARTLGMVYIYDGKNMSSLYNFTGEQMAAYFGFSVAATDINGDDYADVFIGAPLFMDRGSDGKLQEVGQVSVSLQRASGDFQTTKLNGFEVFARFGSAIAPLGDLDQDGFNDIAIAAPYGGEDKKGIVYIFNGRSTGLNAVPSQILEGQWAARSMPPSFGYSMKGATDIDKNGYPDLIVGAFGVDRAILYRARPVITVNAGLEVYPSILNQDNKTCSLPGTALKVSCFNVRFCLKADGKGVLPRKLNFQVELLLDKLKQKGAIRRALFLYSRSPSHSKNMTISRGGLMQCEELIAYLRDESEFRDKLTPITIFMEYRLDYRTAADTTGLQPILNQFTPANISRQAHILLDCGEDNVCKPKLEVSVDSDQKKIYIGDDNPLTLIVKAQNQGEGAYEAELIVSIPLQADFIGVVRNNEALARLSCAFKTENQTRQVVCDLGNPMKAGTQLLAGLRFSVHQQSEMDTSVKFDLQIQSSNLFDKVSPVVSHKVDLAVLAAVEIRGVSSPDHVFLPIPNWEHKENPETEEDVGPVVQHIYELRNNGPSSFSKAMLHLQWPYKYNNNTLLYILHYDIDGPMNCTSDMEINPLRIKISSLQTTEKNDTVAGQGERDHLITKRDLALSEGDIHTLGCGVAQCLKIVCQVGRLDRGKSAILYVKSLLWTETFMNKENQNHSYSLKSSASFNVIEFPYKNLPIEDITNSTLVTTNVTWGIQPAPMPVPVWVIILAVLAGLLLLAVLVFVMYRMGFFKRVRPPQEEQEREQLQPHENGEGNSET

B1: recombinant human tropoelastin (Elastagen) (ligand, UniProt P15502-2 27-724, looked up)
chain: GGVPGAIPGGVPGGVFYPGAGLGALGGGALGPGGKPLKPVPGGLAGAGLGAGLGAFPAVTFPGALVPGGVADAAAAYKAAKAGAGLGGVPGVGGLGVSAGAVVPQPGAGVKPGKVPGVGLPGVYPGGVLPGARFPGVGVLPGVPTGAGVKPKAPGVGGAFAGIPGVGPFGGPQPGVPLGYPIKAPKLPGGYGLPYTTGKLPYGYGPGGVAGAAGKAGYPTGTGVGPQAAAAAAAKAAAKFGAGAAGVLPGVGGAGVPGVPGAIPGIGGIAGVGTPAAAAAAAAAAKAAKYGAAAGLVPGGPGFGPGVVGVPGAGVPGVGVPGAGIPVVPGAGIPGAAVPGVVSPEAAAKAAAKAAKYGARPGVGVGGIPTYGVGAGGFPGFGVGVGGIPGVAGVPGVGGVPGVGGVPGVGISPEAQAAAAAKAAKYGVGTPAAAAAKAAAKAAQFGLVPGVGVAPGVGVAPGVGVAPGVGLAPGVGVAPGVGVAPGVGVAPGIGPGGVAAAAKSAAKVAAKAQLRAAAGLGAGIPGLGVGVGVPGLGVGAGVPGLGVGAGVPGFGAVPGALAAAKAAKYGAAVPGVLGGLGALGGVGIPGGVVGAGPAAAAAAAKAAAKAAQFGLVGAAGLGGLGVGGLGVPGVGGLGGIPPAAAAKAAKYGAAGLGGVLGGAGQFPLGGVAARPGFGLSPIFPGGACLGKACGRKRK
[1]
  focal adhesions per cell (vinculin staining) of MSCs on tropoelastin compared to those on BSA: 1.5 fold
MSCs [2]
  MSC adhesion to tropoelastin: 20.0±2.1%
MSCs [3]; 20 μg/mL soluble in media
  MSC marker expression profile: displayed characteristic CD90+, CD105+, CD73+ and lineage negative expression profiles
MSCs [3]; substrate-bound, replacing one or both growth factors, full or reduced serum media
  MSC phenotype (marker expression): fully retained
MSCs [3]; [10]
  cells expressing positive MSC markers CD90, CD105 and CD73: more than 95%
  cells lacking hematopoietic markers CD34, CD45, CD11b, CD79a and HLA-DR: more than 98%
MSCs [4]
  more cells migrated to the tropoelastin-coated region compared to the control: 45±8%
MSCs [5]
  chemotactic response of MSCs: dose-dependent chemotactic response
MSCs [6]; [11]
  osteogenesis versus timing of exposure during expansion: maximum effect associated with tropoelastin exposure in the later stages of expansion
MSCs [6]; cells grown on coating
  increased osteogenesis compared to cells grown on TCP: 113%
MSCs [6]; cells induced and exposed to TE
  mineralized calcium: increase in mineralized calcium concentrations
MSCs [6]; different molecular weight hyaluronic acid formulations
  MSC osteogenesis with tropoelastin added to hyaluronic acid: promoted MSC osteogenesis
MSCs [6]; exposed days 4-7 of seven-day expansion
  increased osteogenesis compared to cells exposed from days 2-5: 24%
MSCs [6]; grown in at least 2 μg/mL TE and induced in 20 μg/mL TE
  osteogenesis dose response: Maximum osteogenesis
MSCs [6]; [12]
  improved osteogenesis: 55%
MSCs [6]; [13]
  increased osteogenesis: up to 131%
MSCs [6]; tropoelastin present during MSC expansion
  improved osteogenic potential: 42%
MSCs [7]; 20 μg/ml TE during both expansion and induction stages
  intracellular lipid formation: increase in intracellular lipid formation
MSCs [7]; induced in the presence of TE
  intracellular lipid formation compared to culture lacking TE: increase in intracellular lipid formation
MSCs [7]; [14]
  increased adipogenesis: 33%
MSCs [7]; [12]
  increased adipogenesis: 19%
MSCs [7]; [13]
  promoted adipogenesis: 69-85%
MSCs [8]; TE added during the induction stage
  effect on chondrogenic differentiation: inhibited chondrogenic differentiation
MSCs [8]; [11]
  pro-chondrogenic effects versus timing of exposure during expansion: observed only when tropoelastin was present in the early stages of expansion
MSCs [8]; TE present during induction
  concentration during induction stage that significantly inhibited chondrogenic differentiation: ≥ 2 µg/mL
MSCs [8]; expanded in 20 μg/ml TE, induced in the absence of TE
  glycosaminoglycan production: highest extent of glycosaminoglycan production
MSCs [8]; expanded in presence of TE, TE not present during differentiation
  glycosaminoglycan levels compared to cells expanded without TE: increased glycosaminoglycan levels
MSCs [8]; exposed days 2-5 of expansion period
  increased chondrogenesis compared to cells exposed from days 4-7: 71%
MSCs [8]; [14]
  improved chondrogenesis: 134%
MSCs [8]; cells expanded with tropoelastin
  decreased MSC chondrogenesis: 80%
MSCs [8]; cells expanded without tropoelastin
  decreased MSC chondrogenesis: 63%
MSCs [9]
  differentiation capacity after expansion: exhibited the capacity for multi-lineage differentiation
